From article PMC12752648
pKd: −log10 of the molar value.

Key:
[1] = target: oncolytic virus M1 (OVM) virions; test: virus binding to cells measured by qRT-PCR; conditions: 22Rv1 cells expressing TPRA1 variants; parent: est. 1.4; read off a plot
[2] = GFP-positive 22Rv1 cells by flow cytometry, 48 h; conditions: glycan lost; control: wild-type TPRA1
[3] = target: oncolytic virus M1 (OVM) virions (oncolytic virus M1 (Getah-like alphavirus)); test: BLI; Octet RED96e; OVM loaded on aminopropylsilane (APS) biosensors in PBS; TPRA1-ECD-Fc (0.5-8 µM) or Fc (8 µM) in PBS with 0.02% Tween-20 and 1 mg/mL BSA; 1:1 binding model

Substance: HA-tagged full-length TPRA1 (from UniProt Q86W33-1) N11Q; N23Q
- other: Relative change in binding [1]: 0.35

Substance: TPRA1 (transmembrane protein adipocyte-associated 1): N11/23Q
- other: susceptibility of cells to viral infection [2]: decreases

Substance: recombinant extracellular domain of TPRA1 fused to an Fc tag (TPRA1-ECD-Fc) (from UniProt Q86W33-1 1-47) (Fc fusion)
- pKd [3]: 7.04
